Laboratory results taken from US20230143604A1, “QW DOSING OF GIP RECEPTOR AGONIST PEPTIDE COMPOUNDS AND USES THEREOF” (TAKEDA PHARMACEUTICAL COMPANY LIMITED, priority 2020, published 2023).
Starred links: 1 amine or outer side, 2 acyl side, 3 side chain; linkers in the order of their positions; H or OH if unused. Non-standard residues stand in square brackets, D forms with d. Residues, ends and D or L forms follow the SMILES beside them. Groups on a side chain read outwards from the residue. No end group written: not given here. *: point of attachment. C18 diacid = O=C(O)CCCCCCCCCCCCCCCCC(=O)*; γGlu = O=C(O)[C@H](CCC(=O)[*:2])N[*:1]; NMeY = CN[C@@H](Cc1ccc(O)cc1)C(=O)O; Stearoyl = CCCCCCCCCCCCCCCCCC(=O)*; AEEA = NCCOCCOCC(=O)O; Aib = CC(C)(N)C(=O)O

Experiments:
[1] = target: T1, human GLP-1R (Homo sapiens, UniProt P43220); assay: Human GLP1R agonist activity, intracellular cAMP accumulation; type: cell-based; settings: HEK-293T cells overexpressing human GLP-1R, 1 hr, read-out: Human GLP1R cAMP EC50, HEK293T
T1 construct: HEK-293T cells overexpressing full-length human GLP-1R; FLAG (N); host or cells: HEK-293T
Procedure: Cells are cultured per the manufacturer's protocol in DMEM with 10% fetal bovine serum and 1 μg/mL puromycin and stored in frozen aliquots to be used as assay ready cells. On the day of the assay, cells are removed from frozen storage, washed two times in 1× Kreb's Ringer Buffer (Zenbio, Research Triangle Park, N.C.), and re-suspended to a concentration of 4×10^5 cells/mL in 1× Kreb's Ringer Buffer. […] Cells are incubated with test compound for 1 hr at room temperature in the dark, and cAMP accumulation is measured using the Cisbio HiRange cAMP assay kit (Bedford, Mass.) per the manufacturer's protocol. Anti-cAMP antibody and d2-cAMP tracer reagents diluted in lysis/detection buffer are incubated in the dark for 1 hr, and results are measured on an Envision plate reader (Perkin Elmer, Waltham, Mass.). Data is normalized using 1 nm GLP-1 as 100% activity, and DMSO alone as 0% activity.

[2] = physchem
Outline: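 Solubility at pH 7.4 determined by stepwise addition of 200 mM phosphate buffer in 100 μL increments to 3 mg peptide, mixing briefly each time, until no insoluble material remained, then measured by liquid chromatography.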

[3] = target: T2, full-length human GIPR with an N-terminal FLAG tag, overexpressed on HEK-293T cells (human, UniProt P48546 22-466); assay: cell-based or functional assay
T2 sequence (looked up): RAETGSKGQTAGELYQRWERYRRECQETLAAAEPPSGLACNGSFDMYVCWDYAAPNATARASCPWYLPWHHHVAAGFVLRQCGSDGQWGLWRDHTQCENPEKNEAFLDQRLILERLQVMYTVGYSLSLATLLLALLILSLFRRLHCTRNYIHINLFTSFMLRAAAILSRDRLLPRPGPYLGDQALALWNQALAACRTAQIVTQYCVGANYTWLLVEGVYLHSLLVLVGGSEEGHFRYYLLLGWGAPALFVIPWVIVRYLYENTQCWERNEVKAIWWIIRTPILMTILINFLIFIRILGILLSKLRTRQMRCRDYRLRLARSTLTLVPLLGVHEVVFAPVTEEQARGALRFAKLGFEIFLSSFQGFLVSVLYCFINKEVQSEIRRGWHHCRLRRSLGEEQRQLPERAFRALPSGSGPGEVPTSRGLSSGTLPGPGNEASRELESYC

[4] = target: full-length human GLP-1R with an N-terminal FLAG tag, overexpressed on HEK-293T cells (human, UniProt P43220 24-463); assay: cell-based or functional assay

T1 sequence (P43220 24-463): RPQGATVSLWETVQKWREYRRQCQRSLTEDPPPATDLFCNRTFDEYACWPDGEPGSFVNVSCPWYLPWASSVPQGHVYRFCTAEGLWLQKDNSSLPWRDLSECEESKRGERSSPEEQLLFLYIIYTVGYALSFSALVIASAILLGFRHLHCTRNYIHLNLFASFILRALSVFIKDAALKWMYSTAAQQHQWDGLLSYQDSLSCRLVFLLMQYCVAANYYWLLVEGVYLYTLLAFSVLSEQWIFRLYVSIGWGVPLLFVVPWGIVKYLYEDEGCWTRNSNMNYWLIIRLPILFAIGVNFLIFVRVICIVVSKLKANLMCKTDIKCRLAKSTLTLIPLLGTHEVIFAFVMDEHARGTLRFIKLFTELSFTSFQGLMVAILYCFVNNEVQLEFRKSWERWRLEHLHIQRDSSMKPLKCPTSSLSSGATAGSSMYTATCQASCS

| Molecule | EC50 [1] [nM] | solubility ([2]; pH 7.4) [mg/mL] | solubility ([2]; pH 7.4, aqueous buffer) [mg/mL] | Human GIPR cAMP EC50, HEK293T [3] [nM] | Human GLP1R cAMP EC50, HEK293T [4] [nM] |
| --- | --- | --- | --- | --- | --- |
| CC[C@H](C)[C@H](NC(=O)[C@H](CO)NC(=O)[C@H](Cc1ccc(O)cc1)NC(=O)[C@H](CC(=O)O)NC(=O)[C@H](CO)NC(=O)[C@@H](NC(=O)[C@H](Cc1ccccc1)NC(=O)[C@@H](NC(=O)CNC(=O)[C@H](CCC(=O)O)NC(=O)C(C)(C)NC(=O)[C@H](Cc1ccc(O)cc1)NC)[C@@H](C)O)[C@@H](C)CC)C(=O)N[C@@H](C)C(=O)N[C@@H](CCCCNC(=O)CNC(=O)CNC(=O)CNC(=O)CNC(=O)CNC(=O)CCCCCCCCCCCCCCCCC(=O)O)C(=O)N[C@@H](CC(=O)O)C(=O)N[C@@H](CO)C(=O)NC(C)(C)C(=O)N[C@@H](C)C(=O)N[C@@H](CCC(N)=O)C(=O)NC(C)(C)C(=O)N[C@@H](CC(=O)O)C(=O)N[C@@H](Cc1ccccc1)C(=O)N[C@H](C(=O)N[C@@H](CC(N)=O)C(=O)N[C@@H](Cc1c[nH]c2ccccc12)C(=O)N[C@@H](CC(C)C)C(=O)N[C@@H](CC(C)C)C(=O)N[C@@H](C)C(=O)N[C@@H](CCC(N)=O)C(=O)N[C@@H](CO)C(=O)NCC(=O)O)C(C)C [Compound 60] | 100 | ≥ 15 | ≥ 30 |  |  |
| CC[C@H](C)[C@H](NC(=O)[C@H](CO)NC(=O)[C@H](Cc1ccc(O)cc1)NC(=O)[C@H](CC(=O)O)NC(=O)[C@H](CO)NC(=O)[C@@H](NC(=O)[C@H](Cc1ccccc1)NC(=O)[C@@H](NC(=O)CNC(=O)[C@H](CCC(=O)O)NC(=O)C(C)(C)NC(=O)[C@H](Cc1ccc(O)cc1)NC)[C@@H](C)O)[C@@H](C)CC)C(=O)N[C@@H](C)C(=O)N[C@@H](CCCCNC(=O)CNC(=O)CNC(=O)CNC(=O)CNC(=O)CNC(=O)CCCCCCCCCCCCCCCCC(=O)O)C(=O)N[C@@H](CC(=O)O)C(=O)N[C@@H](CO)C(=O)NC(C)(C)C(=O)N[C@@H](C)C(=O)N[C@@H](CCC(N)=O)C(=O)NC(C)(C)C(=O)N[C@@H](CC(=O)O)C(=O)N[C@@H](Cc1ccccc1)C(=O)N[C@H](C(=O)N[C@@H](CC(N)=O)C(=O)N[C@@H](Cc1c[nH]c2ccccc12)C(=O)N[C@@H](CC(C)C)C(=O)N[C@@H](CC(C)C)C(=O)N[C@@H](C)C(=O)N[C@@H](CCC(N)=O)C(=O)N[C@@H](CCCCN)C(=O)NCC(=O)O)C(C)C [Compound 75] | 550 | ≥ 15 | ≥ 30 |  |  |
| CC[C@H](C)[C@H](NC(=O)[C@H](Cc1ccccc1)NC(=O)[C@@H](NC(=O)CNC(=O)[C@H](CCC(=O)O)NC(=O)C(C)(C)NC(=O)[C@H](Cc1ccc(O)cc1)NC)[C@@H](C)O)C(=O)N[C@@H](CO)C(=O)N[C@@H](CC(=O)O)C(=O)N[C@@H](Cc1ccc(O)cc1)C(=O)N[C@@H](CO)C(=O)N[C@H](C(=O)NC(C)(C)C(=O)N[C@@H](CC(C)C)C(=O)N[C@@H](CC(=O)O)C(=O)N[C@@H](CCCNC(=N)N)C(=O)NC(C)(C)C(=O)N[C@@H](C)C(=O)N[C@@H](CCC(N)=O)C(=O)NC(C)(C)C(=O)N[C@@H](CCCCNC(=O)COCCOCCNC(=O)COCCOCCNC(=O)CCCCCCCCCCCCCCCCC(=O)O)C(=O)N[C@@H](Cc1ccccc1)C(=O)N[C@H](C(=O)N[C@@H](CC(N)=O)C(=O)N[C@@H](Cc1c[nH]c2ccccc12)C(=O)N[C@@H](CC(C)C)C(=O)N[C@@H](CC(C)C)C(=O)N[C@@H](C)C(=O)N[C@@H](CCC(N)=O)C(=O)N[C@@H](CCCNC(=N)N)C(=O)NCC(=O)O)C(C)C)[C@@H](C)CC [Compound 219] (H-[NMeY][Aib]EGTFISDYSI[Aib]LDR[Aib]AQ[Aib]K([AEEA-AEEA-C18 diacid])FVNWLLAQRG-OH) | 17.4 |  |  |  |  |
| [NMeY][Aib]EGTFISDYSI[Aib]LDR[Aib]AQ[Aib]K([AEEA-AEEA-γGlu-γGlu-Stearoyl])FVNWLLAQRG-OH [Compound No. 202] |  |  |  | 0.0042 | 2.51 |
| [NMeY][Aib]EGTFISDYSIALDR[Aib]AQ[Aib]K([AEEA-AEEA-γGlu-γGlu-Stearoyl])FVNWLLAQKG-OH [Compound No. 203] |  |  |  | 0.0013 | 4.17 |
| [NMeY][Aib]EGTFISDYSI[Aib]LDR[Aib]AQ[Aib]K([AEEA-AEEA-γGlu-γGlu-C18 diacid])FVNWLLAQRG-NH2 [Compound No. 204] |  |  |  | 0.0003 | 6.61 |
| [NMeY]GEGTFISDYSI[Aib]LDR[Aib]AQ[Aib]K([AEEA-AEEA-γGlu-γGlu-C18 diacid])FVNWLLAQRG-OH [Compound No. 205] |  |  |  | 0.0008 | 33.1 |
| H-Y[Aib]EGTFISDYSIALDRAAQ[Aib]K([AEEA-AEEA-γGlu-γGlu-C18 diacid])FVEWLLAQRG-OH [Compound No. 206] |  |  |  | 0.0004 | 26.3 |
| [NMeY][Aib]EGTFISDYSI[Aib]LDR[Aib]AQ[Aib]K([AEEA-γGlu-γGlu-C18 diacid])FVNWLLAQRG-OH [Compound No. 207] |  |  |  | 0.0004 | 36.3 |
| [NMeY][Aib]EGTFISDYSI[Aib]LDR[Aib]AQ[Aib]K([AEEA-AEEA-γGlu-C18 diacid])FVNWLLAQRG-OH [Compound No. 208] |  |  |  | 0.0003 | 9.33 |
| [NMeY][Aib]EGTFISDYSI[Aib]LDR[Aib]AQ[Aib]K([G5-γGlu-γGlu-C18 diacid])FVNWLLAQRG-OH [Compound No. 210] |  |  |  | 0.0003 | 10.7 |
| [NMeY][Aib]EGTFISDYSI[Aib]LDR[Aib]AA[Aib]K([AEEA-AEEA-γGlu-γGlu-C18 diacid])FVNWLLAQRG-OH [Compound No. 212] |  |  |  | 0.0003 | 42.7 |
| [NMeY][Aib]EGTFISDYSI[Aib]LDRAAQ[Aib]K([AEEA-AEEA-γGlu-γGlu-C18 diacid])FVNWLLAQRG-OH [Compound No. 214] |  |  |  | 0.0014 | 28.8 |
| [NMeY][Aib]EGTFISDYSI[Aib]LDR[Aib]AQAK([AEEA-AEEA-γGlu-γGlu-C18 diacid])FVNWLLAQRG-OH [Compound No. 215] |  |  |  | 0.0005 | 61.7 |
| [NMeY][Aib]EGTFISDYSIALDRAAQAK([AEEA-AEEA-γGlu-γGlu-C18 diacid])FVNWLLAQRG-OH [Compound No. 216] |  |  |  | 0.0005 | 79.4 |
| [NMeY][dA]EGTFISDYSI[Aib]LDR[Aib]AQ[Aib]K([AEEA-AEEA-γGlu-γGlu-C18 diacid])FVNWLLAQRG-OH [Compound No. 217] |  |  |  | 0.0006 | 135 |
| [NMeY]AEGTFISDYSI[Aib]LDR[Aib]AQ[Aib]K([AEEA-AEEA-γGlu-γGlu-C18 diacid])FVNWLLAQRG-OH [Compound No. 218] |  |  |  | 0.0005 | 38 |
| [NMeY][Aib]EGTFISDYSI[Aib]LDR[Aib]AQ[Aib]K([AEEA-AEEA-C18 diacid])FVNWLLAQRG-OH [Compound No. 219] |  |  |  | 0.0008 | 17.4 |
